This passage reports Km, kcat and kcat/Km results from publication PMC8146883, “A New Thermophilic Ene-Reductase from the Filamentous Anoxygenic Phototrophic Bacterium Chloroflexus aggregans” (Microorganisms, 2021).

What all share (assay): purified protein
Assay type in all cases: biochemical, Chloroflexus aggregans
Conditions in all cases: 100 μM NADPH, 50 mM Tris-HCl pH 8.0, 25 °C, 1% ethanol, 200 nM enzyme

Substrate in series [1]: CC1=CC(=O)CC(C)(C)C1=O
Substrate in series [2]: O=C1C=CCCC1
Substrate in series [3]: C=CC(=O)CCCCC

B1: CaOYE (Chloroflexus aggregans DSM 9485) (protein)
chain: MQPHLFTPLTIGSVTLRNRIGMSPMCQYSAVDGFPTDWHLMHLGARAAGGVGLIILEATAVSPEGRISPFDLGIWSDDHIAALSRIVKLIESLGAVAGIQLAHAGRKASVGRPWEGGKPIAPANGGWPVVGPTAEPFAPGYPTPIPLDAAGIARVVADFATATKRARAAGFRWIEIHAAHGYLLHNFLSPLGNDRNDEYGGDLRGRVRLLSEVTAAVRAEWPSDLPLAVRLSCSDWTPEGLTIADTVEVARMLREQGVDLIDCSSGGIAPGITIPVGEGYQVPFAAQVRREANIATAAVGLITRPEHADAIVRNGDADLVLLGRELLRDPHWPLRAARALGHDLAPPPQYLRAW
notes: full-length ORF in pET-28a(+) (NdeI/BamHI), N-terminal His6-tag, E. coli BL21(DE3); model visible Met1 to Trp354; monomer in solution, dimer in crystal
Take B1: in “purified protein [1]”, the Michaelis-Menten constant (Km) is 0.013 ± 0.002 mM, the kcat worked out at 2.27 ± 0.055 s⁻¹ and the catalytic efficiency (kcat/Km) came out at 175000 M⁻¹ s⁻¹. Further, in the series “purified protein [2]”, the Km worked out at 5.520 ± 0.627 mM, the kcat amounted to 3.82 ± 0.176 s⁻¹ and the catalytic efficiency (kcat/Km) is 690 M⁻¹ s⁻¹. Further, in “purified protein [3]”, the Km is reported as 10.32 ± 1.438 mM, the turnover number (kcat) turned out to be 12.1 ± 0.661 s⁻¹ and the kcat/Km is 1170 M⁻¹ s⁻¹.

The Km is the concentration of substrate that gives half-maximal velocity. The kcat is the maximal rate divided by the concentration of active sites. Usually kcat/Km stands for the second-order rate constant that governs catalysis at low substrate concentration.
